# Data taken from patent US9243044B2, “Anticoagulant polypeptide and applications thereof” (GUANGDONG MEDICAL COLLEGE, priority 2011, dated 2016).
# T1: human fXIIa (Homo sapiens, UniProt P00748)
# T1 construct: Human coagulation factors IIa (thrombin), Xa, XIa, XIIa, EGR-fXa; purchased Haematologic Technologies Inc (United States)
# T1 sequence (P00748 373-615 limits assumed): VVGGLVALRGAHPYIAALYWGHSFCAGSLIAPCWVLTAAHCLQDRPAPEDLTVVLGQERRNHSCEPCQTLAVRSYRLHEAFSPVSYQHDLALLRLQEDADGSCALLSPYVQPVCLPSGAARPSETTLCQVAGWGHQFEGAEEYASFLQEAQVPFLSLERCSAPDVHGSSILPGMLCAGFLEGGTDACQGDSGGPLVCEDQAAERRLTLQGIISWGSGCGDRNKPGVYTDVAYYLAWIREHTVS
# T1 sequence (P00748 20-372 limits assumed): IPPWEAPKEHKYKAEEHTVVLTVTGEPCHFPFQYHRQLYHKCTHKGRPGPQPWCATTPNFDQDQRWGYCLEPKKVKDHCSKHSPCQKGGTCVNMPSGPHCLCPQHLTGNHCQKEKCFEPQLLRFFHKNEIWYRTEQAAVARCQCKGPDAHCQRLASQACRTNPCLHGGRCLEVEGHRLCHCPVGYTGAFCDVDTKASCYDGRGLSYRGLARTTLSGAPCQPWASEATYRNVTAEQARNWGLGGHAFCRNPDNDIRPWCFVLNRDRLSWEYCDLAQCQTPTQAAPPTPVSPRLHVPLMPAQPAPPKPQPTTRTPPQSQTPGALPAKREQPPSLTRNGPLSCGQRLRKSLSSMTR
# B1: NAPTin-9 (protein)
# chain: NPSCGENERHDECSRKECDPKCKYDGTEEKDDEKPVVCLTRVCYGDCICRDGFLRNKNGACVKAEDCELDNMEFI
# modifications: Sequence derived from Ancylostoma caninum or Synthetic
# B2: NAPTin-4 (protein)
# chain: NPSCGENERHDECSRKECDPKCKYDGTEEKDDEKPVVCLTRVCYGDCICRDGFLRNKNGACVKAEDCELDNME
# modifications: Sequence derived from Ancylostoma caninum or Synthetic
# B3: NAPTin-8 (protein)
# chain: NPSCGENERHDECSRKECDPKCKYDGTEEKDDEKPVVCLTRVCYGDCICRDGFLRNKNGACVKAEDCELDNMEF
# modifications: Sequence derived from Ancylostoma caninum or Synthetic
# B4: NAPTin-2 (protein)
# chain: NPSCGENERHDECSRKECDPKCKYDGTEEKDDEKPVVCLTRVCYGDCICRDGFLRNKNGACVKAEDCELDN
# modifications: Sequence derived from Ancylostoma caninum or Synthetic
# B5: NAPTin-6 (protein)
# chain: NPSCGENERHDECSRKECDPKCKYDGTEEKDDEKPVVCLTRVCYGDCICRDGFLRNKNGACVKAEDCE
# modifications: Sequence derived from Ancylostoma caninum or Synthetic
# Target: T2, human fXIa (Homo sapiens, UniProt P03951)
# T2 construct: Human coagulation factors IIa (thrombin), Xa, XIa, XIIa, EGR-fXa; purchased Haematologic Technologies Inc (United States)
# Assay: Chromogenic assay, fXIa
# Type: biochemical
# Conditions: 100 nM
# Description: (§1) The recombinant anticoagulant polypeptides in the present invention were expressed in E. coli and purified in our laboratory, of which the activities against coagulation factors were investigated by chromogenic assays. Human coagulation factors IIa (thrombin), Xa, XIa, XIIa, EGR-fXa were products of Haematologic Technologies Inc (United States). Recombinant fVIIa was products of Novo-Nordisk (Denmark). Recombinant soluble tissue factor (sTF) was purchased from Protgen (Beijing, China). The following chromogenic substrates were used for these coagulation factor assays: S2765 for human fXa, S2288 for human fVIIa and fIIa, 52366 for human fXIa and fXIIa, respectively.
# (§2) The chromogenic assays were carried out in a total reaction volume of 100 μl in individual wells of a 96-well microtiter plate. 50 μl fIIa, fXa, fXIa, or fXIIa (final concentration: 1 nM) was incubated with 10 μl recombinant anticoagulant polypeptide at various concentrations (or PBS control group) Assays for the detection activity of fVIIa: 50 μl fVIIa+TF (1 μM) and EGR-fXa (final concentration 500 nM) was incubated for 15 mins at 25° C., respectively. After the addition of 40 μl of prewarmed chromogenic substrate to a final concentration of 400 μM, the changes of absorbance at 405 nm were monitored by using an E1x808 kinetic microtiter reader. The data were used to calculate the velocities of response.
# T2 sequence (P03951 19-387 limits assumed): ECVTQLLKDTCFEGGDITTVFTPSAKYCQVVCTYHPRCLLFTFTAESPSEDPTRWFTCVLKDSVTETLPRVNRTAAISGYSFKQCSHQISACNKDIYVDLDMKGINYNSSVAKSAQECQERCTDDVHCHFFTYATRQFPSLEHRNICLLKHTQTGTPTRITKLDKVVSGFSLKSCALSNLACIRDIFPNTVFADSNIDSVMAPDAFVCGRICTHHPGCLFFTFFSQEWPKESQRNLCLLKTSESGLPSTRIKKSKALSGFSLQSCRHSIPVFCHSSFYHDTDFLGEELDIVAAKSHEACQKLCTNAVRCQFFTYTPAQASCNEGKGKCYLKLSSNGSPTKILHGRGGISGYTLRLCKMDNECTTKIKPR
# T2 sequence (P03951 388-625 limits assumed): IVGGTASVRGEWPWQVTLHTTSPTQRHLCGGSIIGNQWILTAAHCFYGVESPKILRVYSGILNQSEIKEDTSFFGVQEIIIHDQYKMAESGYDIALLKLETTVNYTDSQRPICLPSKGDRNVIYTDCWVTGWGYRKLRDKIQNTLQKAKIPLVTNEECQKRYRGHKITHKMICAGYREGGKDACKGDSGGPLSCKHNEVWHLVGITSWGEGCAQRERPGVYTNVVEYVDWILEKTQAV
row,Molecule,inhibition of the activity of fXIa
1,B1,more than 90%
2,B2,more than 90%
3,B3,more than 90%
4,B4,more than 90%
5,B5,more than 90%

# Same assay, conditions: 200 nM
row,Molecule,inhibition of the activity of fXIa (in words)
1,B2,almost completely inhibited
2,B4,almost completely inhibited
3,B5,almost completely inhibited

# Tested on: normal human plasma
# Assay: aPTT assay in normal human plasma
# Type: biochemical
# Conditions: 100 nM and 500 nM
# Description: (§3) The recombinant anticoagulant polypeptides were expressed in Escherichia coli and purified in our laboratory. Anticoagulant activity was determined by measuring the aPTT and PT.
# For the aPTT assay, 10 μl recombinant protein at various concentrations was mixed with 50 μl fresh normal human plasma, 20 μl aPTT reagent (MDC Hemostasis, Germany) and incubated for 15 mins at 37° C. 20 μl 0.05 mol/L prewarmed CaCl2 was then added to initiate the clotting reaction. The clotting time was measured with the absorbance at 630 nm by using an E1x808 kinetic microtiter reader (BioTek, United States). Each concentration was repeated 3 times. The ratio of the mean aPTT value of each concentration to blank control group is multiples of prolonging the aPTT.
row,Molecule,prolongation of aPTT (in words)
1,B1,significantly prolong aPTT
2,B2,significantly prolong aPTT
3,B3,significantly prolong aPTT
4,B4,significantly prolong aPTT
5,B5,significantly prolong aPTT

# Same assay, conditions: 100 nM, normal human plasma
row,Molecule,aPTT [s]
1,B1,80.8 ± 3.2
2,B2,78.7 ± 3.7
3,B3,79.7 ± 2.9
4,B4,80.2 ± 5.1
5,B5,79.5 ± 3.1

# Same assay, conditions: 100 nM; ratio of mean aPTT to blank control
row,Molecule,multiples of prolonging aPTT
1,B1,2.01
2,B2,1.96
3,B3,1.99
4,B4,2.0
5,B5,1.98

# Same assay, conditions: 500 nM, normal human plasma
row,Molecule,aPTT [s]
1,B1,235.3 ± 5.4
2,B2,233.3 ± 4.5
3,B3,238.6 ± 8.1
4,B4,221.8 ± 6.3
5,B5,215.4 ± 5.6

# Same assay, conditions: 500 nM; ratio of mean aPTT to blank control
row,Molecule,multiples of prolonging aPTT
1,B1,5.87
2,B2,5.82
3,B3,5.95
4,B4,5.53
5,B5,5.37

# Target: T3, human fIIa (thrombin) (Homo sapiens, UniProt P00734)
# T3 construct: Human coagulation factors IIa (thrombin), Xa, XIa, XIIa, EGR-fXa; purchased Haematologic Technologies Inc (United States)
# Assay: Chromogenic assay, fIIa (thrombin)
# Type: biochemical
# Conditions: 100 nM
# Description: as §1, §2
row,Molecule,effect on fIIa activity (in words)
1,B1,without affecting
2,B2,without affecting
3,B3,without affecting
4,B4,without affecting
5,B5,without affecting

# Same assay, conditions: 200 nM
row,Molecule,effect on fIIa activity (in words)
1,B2,without affecting
2,B4,without affecting
3,B5,without affecting

# Target: T1, human fXIIa
# Assay: Chromogenic assay, fXIIa
# Type: biochemical
# Conditions: 100 nM
# Description: as §1, §2
row,Molecule,effect on fXIIa activity (in words)
1,B1,without affecting
2,B2,without affecting
3,B3,without affecting
4,B4,without affecting
5,B5,without affecting

# Same assay, conditions: 200 nM
row,Molecule,effect on fXIIa activity (in words)
1,B2,without affecting
2,B4,without affecting
3,B5,without affecting

# Tested on: normal human plasma
# Assay: PT assay in normal human plasma
# Type: biochemical
# Conditions: 100 nM
# Description: as §3
# For the PT assay, 10 μl recombinant protein at various concentration was mixed with 45 μl normal human plasma and incubated for 15 mins at 37° C. 45 μl prewarmed PT reagent (MDC Hemostasis, Germany) was then added and the clotting time was measured with the absorbance at 630 nm by using an E1x808 kinetic microtiter reader (BioTek, United States). Each concentration was repeated 3 times.
row,Molecule,prolongation of PT (in words)
1,B1,almost couldn't prolong PT
2,B3,almost couldn't prolong PT

# Same assay, conditions: 100 nM and 500 nM
row,Molecule,prolongation of PT (in words)
1,B2,couldn't prolong PT
2,B4,couldn't prolong PT
3,B5,couldn't prolong PT

# Same assay, conditions: 100 nM, normal human plasma
row,Molecule,PT [s]
1,B1,13.0 ± 0.7
2,B2,12.4 ± 0.9
3,B3,12.8 ± 0.7
4,B4,11.7 ± 1.1
5,B5,12.4 ± 0.9

# Same assay, conditions: 500 nM
row,Molecule,prolongation of PT
1,B1,less than 1.6 times
2,B3,less than 1.6 times

# Same assay, conditions: 500 nM, normal human plasma
row,Molecule,PT [s]
1,B1,19.6 ± 0.9
2,B2,11.6 ± 0.3
3,B3,17.6 ± 0.6
4,B4,12.6 ± 0.5
5,B5,12.6 ± 0.4

# Target: T4, human fXa (Homo sapiens, UniProt P00742)
# T4 construct: Human coagulation factors IIa (thrombin), Xa, XIa, XIIa, EGR-fXa; purchased Haematologic Technologies Inc (United States)
# Assay: Chromogenic assay, fXa
# Type: biochemical
# Conditions: 100 nM
# Description: as §1, §2
# T4 sequence (P00742 41-179 limits assumed): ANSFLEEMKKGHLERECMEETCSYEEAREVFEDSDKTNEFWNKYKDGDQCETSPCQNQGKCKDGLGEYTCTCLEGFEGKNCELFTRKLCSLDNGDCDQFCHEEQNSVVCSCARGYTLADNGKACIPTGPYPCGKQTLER
# T4 sequence (P00742 235-488 limits assumed): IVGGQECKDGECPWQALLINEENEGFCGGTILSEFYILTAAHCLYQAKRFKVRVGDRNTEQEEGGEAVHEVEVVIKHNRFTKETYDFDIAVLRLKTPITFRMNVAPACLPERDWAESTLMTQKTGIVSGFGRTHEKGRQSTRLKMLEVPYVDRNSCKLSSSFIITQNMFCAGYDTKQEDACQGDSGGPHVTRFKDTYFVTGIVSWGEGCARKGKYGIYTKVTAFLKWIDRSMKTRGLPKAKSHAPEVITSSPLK
row,Molecule,effect on fXa activity (in words)
1,B1,without affecting
2,B2,without affecting
3,B3,without affecting
4,B4,without affecting
5,B5,without affecting

# Same assay, conditions: 200 nM
row,Molecule,effect on fXa activity (in words)
1,B2,without affecting
2,B4,without affecting
3,B5,without affecting

# Target: T5, fVIIa/TF (Homo sapiens, UniProt P08709)
# T5 construct: Recombinant fVIIa was products of Novo-Nordisk (Denmark); purchased Novo-Nordisk (Denmark) for fVIIa; Protgen (Beijing, China) for sTF; Haematologic Technologies Inc for EGR-fXa
# Assay: Chromogenic assay, fVIIa/TF
# Type: biochemical
# Conditions: 100 nM
# Description: as §1, §2
# T5 sequence (P08709 61-212 limits assumed): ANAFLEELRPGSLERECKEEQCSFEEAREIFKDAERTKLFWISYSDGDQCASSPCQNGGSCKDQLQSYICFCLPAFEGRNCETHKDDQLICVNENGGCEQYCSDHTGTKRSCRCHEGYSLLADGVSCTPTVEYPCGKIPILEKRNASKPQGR
# T5 sequence (P08709 213-466 limits assumed): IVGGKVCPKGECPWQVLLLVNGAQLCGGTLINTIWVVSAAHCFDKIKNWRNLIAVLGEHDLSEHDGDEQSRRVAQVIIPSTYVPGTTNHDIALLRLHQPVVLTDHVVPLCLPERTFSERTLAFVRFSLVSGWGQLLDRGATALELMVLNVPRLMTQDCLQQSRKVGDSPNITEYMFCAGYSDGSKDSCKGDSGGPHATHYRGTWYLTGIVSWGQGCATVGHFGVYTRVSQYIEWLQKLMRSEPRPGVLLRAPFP
# T5 sequence (P13726 33-251 partner limits assumed): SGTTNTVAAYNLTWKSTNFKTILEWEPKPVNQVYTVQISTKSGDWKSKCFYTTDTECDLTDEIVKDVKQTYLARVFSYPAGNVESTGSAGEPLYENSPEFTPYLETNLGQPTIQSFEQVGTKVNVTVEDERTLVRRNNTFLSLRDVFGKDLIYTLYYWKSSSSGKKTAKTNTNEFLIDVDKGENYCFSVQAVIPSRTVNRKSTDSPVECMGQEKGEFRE
row,Molecule,effect on fVIIa/TF activity (in words)
1,B1,without affecting
2,B2,without affecting
3,B3,without affecting
4,B4,without affecting
5,B5,without affecting

# Same assay, conditions: 200 nM
Molecule,inhibition of the activity of fVIIa/TF,effect on fVIIa/TF activity (in words)
B1,about 15%,–
B2,–,without affecting
B3,about 15%,–
B4,–,without affecting
B5,–,without affecting
